Assay results taken from patent publication US20230323466A1, “DETERMINING CANCER RESPONSIVENESS TO TREATMENT” (Queensland University of Technology, priority 2020, published 2023).

Tested on: EGFR
Experiment: EGF stimulation of EGFR wildtype cells, western blot of CDCA3 (FIG. 11)
Assay type: cell-based
Conditions: EGFR wildtype cells stimulated with EGF
Text: FIG. 11. CDCA3 levels are elevated in EGFR^mutNSCLC cell lines. Stimulation of receptor tyrosine kinase (RTK) signalling in EGFR wildtype cells induces the upregulation of CDCA3 protein.
The current Example examined whether elevated CDCA3 was as a result of activating mutations in epidermal growth factor receptor (EGFR) that solely occur in cases of NSCLC adenocarcinoma. In in vitro models of disease, CDCA3 protein levels were examined by western blot analysis and it was identified that CDCA3 protein is markedly elevated in EGFR mutant NSCLC cell lines versus EGFR wildtype cell lines (FIG. 11). The present inventors also identified that stimulation of EGFR wildtype cells with EGF, an EGFR ligand, induced PI3K-Akt downstream signal transduction and the upregulation of CDCA3 protein. PI3K-Akt was constitutively activated in EGFR mutant NSCLC cell lines.

B1: EGF: an EGFR ligand (protein, UniProt P01133 23-1207, looked up)
Pro-epidermal growth factor: PQHWSCPEGTLAGNGNSTCVGPAPFLIFSHGNSIFRIDTEGTNYEQLVVDAGVSVIMDFHYNEKRIYWVDLERQLLQRVFLNGSRQERVCNIEKNVSGMAINWINEEVIWSNQQEGIITVTDMKGNNSHILLSALKYPANVAVDPVERFIFWSSEVAGSLYRADLDGVGVKALLETSEKITAVSLDVLDKRLFWIQYNREGSNSLICSCDYDGGSVHISKHPTQHNLFAMSLFGDRIFYSTWKMKTIWIANKHTGKDMVRINLHSSFVPLGELKVVHPLAQPKAEDDTWEPEQKLCKLRKGNCSSTVCGQDLQSHLCMCAEGYALSRDRKYCEDVNECAFWNHGCTLGCKNTPGSYYCTCPVGFVLLPDGKRCHQLVSCPRNVSECSHDCVLTSEGPLCFCPEGSVLERDGKTCSGCSSPDNGGCSQLCVPLSPVSWECDCFPGYDLQLDEKSCAASGPQPFLLFANSQDIRHMHFDGTDYGTLLSQQMGMVYALDHDPVENKIYFAHTALKWIERANMDGSQRERLIEEGVDVPEGLAVDWIGRRFYWTDRGKSLIGRSDLNGKRSKIITKENISQPRGIAVHPMAKRLFWTDTGINPRIESSSLQGLGRLVIASSDLIWPSGITIDFLTDKLYWCDAKQSVIEMANLDGSKRRRLTQNDVGHPFAVAVFEDYVWFSDWAMPSVMRVNKRTGKDRVRLQGSMLKPSSLVVVHPLAKPGADPCLYQNGGCEHICKKRLGTAWCSCREGFMKASDGKTCLALDGHQLLAGGEVDLKNQVTPLDILSKTRVSEDNITESQHMLVAEIMVSDQDDCAPVGCSMYARCISEGEDATCQCLKGFAGDGKLCSDIDECEMGVPVCPPASSKCINTEGGYVCRCSEGYQGDGIHCLDIDECQLGEHSCGENASCTNTEGGYTCMCAGRLSEPGLICPDSTPPPHLREDDHHYSVRNSDSECPLSHDGYCLHDGVCMYIEALDKYACNCVVGYIGERCQYRDLKWWELRHAGHGQQQKVIVVAVCVVVLVMLLLLSLWGAHYYRTQKLLSKNPKNPYEESSRDVRSRRPADTEDGMSSCPQPWFVVIKEHQDLKNGGQPVAGEDGQAADGSMQPTSWRQEPQLCGMGTEQGCWIPVSSDKGSCPQVMERSFHMPSYGTQTLEGGVEKPHSLLSANPLWQQRALDPPHQMELTQ
modifications: Pro-epidermal growth factor
notes: an EGFR ligand
Question: B1 was tested. Which CDCA3 protein did it give?
Answer: upregulation
